Where a chain is given by its changes, count along the chain named.
T1: GFP-9S library array, motif 4 ND N98T;D124M (synthetic construct, N98T;D124M)
T1 chain: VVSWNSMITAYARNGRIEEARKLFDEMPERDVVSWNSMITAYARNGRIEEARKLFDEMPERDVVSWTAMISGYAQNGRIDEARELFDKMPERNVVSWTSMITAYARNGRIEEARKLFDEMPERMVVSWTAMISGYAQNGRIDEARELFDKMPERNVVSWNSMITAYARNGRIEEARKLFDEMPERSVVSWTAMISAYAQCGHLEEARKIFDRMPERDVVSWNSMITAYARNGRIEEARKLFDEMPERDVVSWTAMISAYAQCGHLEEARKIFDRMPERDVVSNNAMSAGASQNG

T2: GFP-9S library array, motif 4 ND N98L;D124H (synthetic construct, N98L;D124H)
T2 chain: T1 chain with T98L, M124H

T3: GFP-9S library array, motif 4 ND N98W;D124S (synthetic construct, N98W;D124S)
T3 chain: T1 chain with T98W, M124S

T4: GFP-9S library array, motif 4 ND N98Y;D124I (synthetic construct, N98Y;D124I)
T4 chain: T1 chain with T98Y, M124I

T5: GFP-9S library array, motif 4 ND N98P;D124N (synthetic construct, N98P;D124N)
T5 chain: T1 chain with T98P, M124N


Key:
Assay in all cases: high-throughput RNA pulldown from lysate on Ni-NTA beads; HRP: 50 mM Tris pH 8, 150 mM NaCl, 1 mM beta-mercaptoethanol, 50 ug/ml BSA, 3 ug/ml yeast RNA, 0.5% heparin; ITC and FP: Tris pH 8, 200 mM KCl, 5% glycerol; MST: 50 mM Tris pH 8, 200 mM NaCl, 1 mM DTT, BSA, heparin, 0.05% Tween 20
Settings in all cases: tags: N-terminal His-eGFP
[1] = biological target: T1, GFP-9S library array, motif 4 ND …
[2] = biological target: T2, GFP-9S library array, motif 4 ND …
[3] = biological target: T3, GFP-9S library array, motif 4 ND …
[4] = biological target: T4, GFP-9S library array, motif 4 ND …
[5] = biological target: T5, GFP-9S library array, motif 4 ND …

Binder | Kd ([1]; label: 5' Cy5) | Kd ([2]; label: 5' Cy5) | Kd ([3]; label: 5' Cy5) | Kd ([4]; label: 5' Cy5) | Kd ([5]; label: 5' Cy5) | Kd ([1]; label: 5' IRDye 800CW) | Kd ([2]; label: 5' IRDye 800CW) | Kd ([3]; label: 5' IRDye 800CW) | Kd ([4]; label: 5' IRDye 800CW) | Kd ([5]; label: 5' IRDye 800CW)
AUUACACGUGA (ssRNA) [Cy5-rpoA] | 101 nM | 179 nM | 89.2 nM | 109 nM | 172 nM |  |  |  |  | 
AUUAAACGUGA (ssRNA) [IR-rpoA-A] |  |  |  |  |  | 162 nM | 399 nM | 247 nM | 347 nM | 151 nM
AUUAGACGUGA (ssRNA) [Cy5-rpoA-G] | 107 nM | 196 nM | 79.8 nM | 112 nM | 164 nM |  |  |  |  | 
AUUAUACGUGA (ssRNA) [IR-rpoA-U] |  |  |  |  |  | 165 nM | 125 nM | 263 nM | 340 nM | 136 nM
